The results in this text go back to the RNAGym collection of RNA variant scans (doi:10.1073/pnas.2313332121).

B1: TPR t1 (parent)
chain: GACCAAUCUGCCCUCAGAGCUCGAGAACAUCUUCGGAUGCAGAGGAGGCAGGCUUCGGUGGCGCGAUAGCGCCAACGUCCUCAACCUCCAAUGCAUCCCACCACAUGAUGAUGCCUGAAGAGCCUUGGUUUUUUG

The variants in this data set derive from B1. The data set is described as follows: polymerase ribozyme fitness, log enrichment relative to wild type (log ratio); higher = more active; in vitro selection for triplet polymerase activity. The procedure, abridged: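 Input and output libraries were sequenced on Illumina after a single in vitro selection round, run in triplicate on PCR-built, transcribed mutant libraries of each subunit of a heterodimeric triplet polymerase ribozyme. Selection annealed libraries to a biotinylated primer, the partner subunit and triplets, incubated them frozen at −7 °C, then gel-excised extended constructs for streptavidin-bead capture and RT-PCR. Genotypes with ≥10 input reads and ≥1 read per output were kept. Fitness is the logarithm, taken in base 2, of genotype enrichment divided by wild-type enrichment, using inverse-variance-weighted replicate averages.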
Consider GACCAAUCUGCCCUCAGAGCUCGAGAACAUCUUCGGAUGCAGAGGAGGCAGGCUUCGGUGGCGCGAUAGCGCCAACGUCCUCAACCUGCAUUGCAUCCCACCACAUGAUGAAGCCUGAAGAGCCUUGGUUUUUUG [C88G A91U U112A], for which the “polymerase ribozyme fitness (log ratio)” value is -1.38. Next, GACCAAUCUGCCCUCAGAGCUCGAGAACAUCUUCGGAUGCAGAGGAGGCAGGCUUCGGUGGCGCGAUAGCGCCAACGUCCUCAACCUGCAAUGCAUCCCACCACAUGAUGCUGCCUGAAGAGCCUUGGUUUUUUG [C88G A111C]: 0.0984; GACCAAUCUGCCCUCAGAGCUCGAGAACAUCUUCGGAUGCAGAGGAGGCAGGCUUCGGUGGCGCGAUAGCGCCAACGUCCUCAACCUGCAAUGCCUCCCACCACAUGAUGAUGCCUGAAGAGCCUUGGUUUUUUG [C88G A95C]: -4.58; GACCAAUCUGCCCUCAGAGCUCGAGAACAUCUUCGGAUGCAGAGGAGGCAGGCUUCGGUGGCGCGAUAGCGCCAACGUCCUCAACCUGCAAUGCAUCCCACCACAUGAUGAUUCCUGAAGAGCCCUGGUUUAUUG [C88G G113U U125C U132A]: -3.76. GACCAAUCUGCCCUCAGAGCUCGAGAACAUCUUCGGAUGCAGAGGAGGCAGGCUUCGGUGGCGCGAUAGCGCCAACGUCCUCAACCUACAAUGCAUCCCACCACAUGAUGAUGCCUGAAGAGCCUUGGAUUUUUG [C88A U129A]: the “polymerase ribozyme fitness (log ratio)” value is -2.21. Next, GACCAAUCUGCCCUCAGAGCUCGAGAACAUCUUCGGAUGCAGAGGAGGCAGGCUUCGGUGGCGCGAUAGCGCCAACGUCCUCAACCUACAAUGCAUCCCACCACAUGAUGAUGCCUGAAGAGCCUUGGGUUUUUG [C88A U129G]: -1.51; GACCAAUCUGCCCUCAGAGCUCGAGAACAUCUUCGGAUGCAGAGGAGGCAGGCUUCGGUGGCGCGAUAGCGCCAACGUCCUCAACCUACAAUGCAUCCCACCACAUGAUGAAGCCUGAAGAGCCUUGGUUUUUUG [C88A U112A]: -0.232; GACCAAUCUGCCCUCAGAGCUCGAGAACAUCUUCGGAUGCAGAGGAGGCAGGCUUCGGUGGCGCGAUAGCGCCAACGUCCUCAACCUGCAAUGCAUCCCACCACAUGAUGAUGCGUGAAGAGCCUUGGUUUUUUG [C88G C115G]: -3.51. Turning to GACCAAUCUGCCCUCAGAGCUCGAGAACAUCUUCGGAUGCAGAGGAGGCAGGCUUCGGUGGCGCGAUAGCGCCAACGUCCUCAACCUACAAUGCAUCCCACCACAAGAUGAUGCCUGAAGAGCCUUGUUUUUUUG [C88A U106A G128U], the “polymerase ribozyme fitness (log ratio)” value is -3.15. Turning to GACCAAUCUGCCCUCAGAGCUCGAGAACAUCUUCGGAUGCAGAGGAGGCAGGCUUCGGUGGCGCGAUAGCGCCAACGUCCUCAACCUACAAUGCAUCCCACCACAUGAUGAUGCCUGAAGAGCCGUGGUUUUUUG [C88A U125G], the “polymerase ribozyme fitness (log ratio)” value was -1.18. The value for GACCAAUCUGCCCUCAGAGCUCGAGAACAUCUUCGGAUGCAGAGGAGGCAGGCUUCGGUGGCGCGAUAGCGCCAACGUCCUCAACCUACAAUGCAUCCCACCACAUGAUGAUGCCUGAAGAGCCUUGGUGUUUUG [C88A U130G] was -1.33; that for GACCAAUCUGCCCUCAGAGCUCGAGAACAUCUUCGGAUGCAGAGGAGGCAGGCUUCGGUGGCGCGAUAGCGCCAACGUCCUCAACCUACAAUGCAUCCCACCACAUGAUGAUGCCUGAAGAGCCUUGGUAUUUUG [C88A U130A] was -2.14; that for GACCAAUCUGCCCUCAGAGCUCGAGAACAUCUUCGGAUGCAGAGGAGGCAGGCUUCGGUGGCGCGAUAGCGCCAACGUCCUCAACCUGCACUGCAUCCCACCACAUGAUGAUGCCUGAAGAGCCUUGGUUUUUUG [C88G A91C] was -2.11. Consider GACCAAUCUGCCCUCAGAGCUCGAGAACAUCUUCGGAUGCAGAGGAGGCAGGCUUCGGUGGCGCGAUAGCGCCAACGUCCUCAACCUGCAAUGCAUCCCACCACAUGAUGAUACCUGAAGAGCCUUGGUUUUUUG [C88G G113A], for which the “polymerase ribozyme fitness (log ratio)” value is -1.99. Next, GACCAAUCUGCCCUCAGAGCUCGAGAACAUCUUCGGAUGCAGAGGAGGCAGGCUUCGGUGGCGCGAUAGCGCCAACGUCCUCAACCUGCAAUGCAUCCCACCACAUGAUGAUCCCUGAAGAGCCUUGGUUUUUUG [C88G G113C]: -2.74; GACCAAUCUGCCCUCAGAGCUCGAGAACAUCUUCGGAUGCAGAGGAGGCAGGCUUCGGUGGCGCGAUAGCGCCAACGUCCUCAACCUGCAAUGCAUCCCACCACAUGAUGAUGUCUGAAGAGCCUUGGUUUUUUG [C88G C114U]: -1.84. As to GACCAAUCUGCCCUCAGAGCUCGAGAACAUCUUCGGAUGCAGAGGAGGCAGGCUUCGGUGGCGCGAUAGCGCCAACGUCCUCAACCUACAAUGCAUCCCACCACAUGAUGAUGCCGGAAGAGCCUUGGUUUUUUG [C88A U116G], the “polymerase ribozyme fitness (log ratio)” value is -2.94.

In the case of GACCAAUCUGCCCUCAGAGCUCGAGAACAUCUUCGGAUGCAGAGGAGGCAGGCUUCGGUGGCGCGAUAGCGCCAACGUCCUCAACCUACAAUGCAUCCCACCACAUGAUGAUGCCAGAAGAGCCUUGGUUUUUUG [C88A U116A], the “polymerase ribozyme fitness (log ratio)” value is -3.6. For GACCAAUCUGCCCUCAGAGCUCGAGAACAUCUUCGGAUGCAGAGGAGGCAGGCUUCGGUGGCGCGAUAGCGCCAACGUCCUCAACCUACAAUGCAUCCCACCACAUGACGAUGCCUGAAGAGCCUUGGUUUUUUG [C88A U109C], the “polymerase ribozyme fitness (log ratio)” value was -5.25. The value for GACCAAUCUGCCCUCAGAGCUCGAGAACAUCUUCGGAUGCAGAGGAGGCAGGCUUCGGUGGCGCGAUAGCGCCAACGUCCUCAACCUACAAUGCAUCCCACCACAUGAAGAUGCCUGAAGAGCCUUGGUUUUUUG [C88A U109A] was -5.8; that for GACCAAUCUGCCCUCAGAGCUCGAGAACAUCUUCGGAUGCAGAGGAGGCAGGCUUCGGUGGCGCGAUAGCGCCAACGUCCUCAACCUGCAAUGCAUCCCACCACAUGAUUAUGCCUGAAGAGCCUUGGUUUUUUG [C88G G110U] was -2.67.
